Measured values published in publication PMC12767347 (bioRxiv, 2025).
Where “and” joins values, the source holds several entries; their conditions need not be identical. Equal values may be shown once. Read-outs that look alike come from different tables or passages of the source.

T1: untagged PNPase (catalytically active) (M. smegmatis, UniProt A0QVQ5 1-763)
T1 sequence: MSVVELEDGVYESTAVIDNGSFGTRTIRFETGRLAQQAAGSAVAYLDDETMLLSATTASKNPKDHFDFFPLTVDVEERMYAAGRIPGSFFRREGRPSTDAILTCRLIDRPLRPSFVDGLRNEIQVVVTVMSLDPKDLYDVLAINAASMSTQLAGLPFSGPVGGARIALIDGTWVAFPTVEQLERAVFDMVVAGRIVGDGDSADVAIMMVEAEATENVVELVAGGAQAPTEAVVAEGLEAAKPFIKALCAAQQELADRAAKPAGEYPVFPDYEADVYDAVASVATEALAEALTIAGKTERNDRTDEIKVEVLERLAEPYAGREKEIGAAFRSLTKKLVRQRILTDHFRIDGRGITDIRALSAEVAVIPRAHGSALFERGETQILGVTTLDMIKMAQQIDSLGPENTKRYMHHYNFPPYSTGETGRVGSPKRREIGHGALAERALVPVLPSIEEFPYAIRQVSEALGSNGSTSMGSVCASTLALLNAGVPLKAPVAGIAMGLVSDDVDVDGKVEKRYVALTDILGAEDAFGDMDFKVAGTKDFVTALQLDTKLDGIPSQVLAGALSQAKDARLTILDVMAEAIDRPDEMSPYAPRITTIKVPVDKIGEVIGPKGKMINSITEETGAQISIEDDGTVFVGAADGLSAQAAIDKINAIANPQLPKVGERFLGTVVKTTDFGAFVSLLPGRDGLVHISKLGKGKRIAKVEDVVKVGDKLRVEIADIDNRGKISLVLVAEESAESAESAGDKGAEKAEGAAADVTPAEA

T2: HA-tagged PNPase (catalytically active) (M. smegmatis, UniProt A0QVQ5 1-763)
T2 sequence: T1 sequence

B1: catalytically dead full-length RNase E (D694R, D738R), N-terminal 6x-His and FLAG tagged (enzyme)
chain: MAEDAHTEDLSTQTPQQEGLPERLRVHSLARVLGTTSRRVLDALAEFDGRQRSAHSTVDKADAERVRAALTESPAAETPPEEAPAAETPVADLVVVQAEQVEVVTVSEAGPAEPAEPAEPEAPAAEAEAEAETEVADEAETPEPTFRGAVLVGDEPESRLILEHANIPPARETQTERPDYLPLFVAPQPVSFEPAVVDDEDEDDDTETGAESDFDSGADSDSDDDQADRPRRRRRGRRGRGRGRGEQNDDATSDADTDSTEDQTDGDEQESGEDSDDSGDEDSTTTEGGTRRRRRRRRRKSGSGDSDDAVSPDDPPNTVVHERAPRTERSDKSDDSEIQGISGSTRLEAKRQRRRDGRDAGRRRPPILSEAEFLARREAVERTMIVRDKVRTEPPHEGARYTQIAVLEDGVVVEHFVTSAASASLVGNIYLGIVQNVLPSMEAAFVDIGRGRNGVLYAGEVNWEAAGLGGQNRKIEQALKPGDYVVVQVSKDPVGHKGARLTTQVSLAGRYLVYVPGASSTGISRKLPDTERQRLKEILREVVPSDAGVIIRTASEGVKEEDIRSDVERLQKRWSEIEAKAAEVTEKKAGAAVALYEEPDVLVKVIRDLFNEDFSSLIVSGDEAWNTINSYVEAVAPDLMPRLTKYEPAGPDAPDVFAVHRIDEQLAKAMDRKVWLPSGGTLVIDRTEAMTVVRVNTGKFTGSGGNLEQTVTRNNLEAAEEIVRQLRLRDIGGIVVIRFIDMVLESNRDLVLRRLTEALARDRTRHQVSEVTSLGLVQLTRKRLGTGLVEAFSTACTHCGGRGIVLHGDPIDSASSNGGRKSDSSGGGGSGGGRRGKRGKKGAARTEEVHVAKVPDHTPGEHPMFKAMAAANGKHEGDEDHEDHEDHETAEDTTAAEVRDDTRDEHDADERAHVVTAAVGAAGDEDLDDSDEDSDLDSDEESDDESDEDEIELDDDEDELDEDIEVIGDSDDSDDSDDSDEDDDSDDSDDDSDEDEDSDSDEDEEPVREVYEPPVTAPRARVRRRAAARPAGPPSHD
B2: catalytically dead RNase E C-terminal IDR deletion (retaining AA 2-823), N-terminal 6x-His and FLAG tagged (domain or fragment)
chain: AEDAHTEDLSTQTPQQEGLPERLRVHSLARVLGTTSRRVLDALAEFDGRQRSAHSTVDKADAERVRAALTESPAAETPPEEAPAAETPVADLVVVQAEQVEVVTVSEAGPAEPAEPAEPEAPAAEAEAEAETEVADEAETPEPTFRGAVLVGDEPESRLILEHANIPPARETQTERPDYLPLFVAPQPVSFEPAVVDDEDEDDDTETGAESDFDSGADSDSDDDQADRPRRRRRGRRGRGRGRGEQNDDATSDADTDSTEDQTDGDEQESGEDSDDSGDEDSTTTEGGTRRRRRRRRRKSGSGDSDDAVSPDDPPNTVVHERAPRTERSDKSDDSEIQGISGSTRLEAKRQRRRDGRDAGRRRPPILSEAEFLARREAVERTMIVRDKVRTEPPHEGARYTQIAVLEDGVVVEHFVTSAASASLVGNIYLGIVQNVLPSMEAAFVDIGRGRNGVLYAGEVNWEAAGLGGQNRKIEQALKPGDYVVVQVSKDPVGHKGARLTTQVSLAGRYLVYVPGASSTGISRKLPDTERQRLKEILREVVPSDAGVIIRTASEGVKEEDIRSDVERLQKRWSEIEAKAAEVTEKKAGAAVALYEEPDVLVKVIRDLFNEDFSSLIVSGDEAWNTINSYVEAVAPDLMPRLTKYEPAGPDAPDVFAVHRIDEQLAKAMDRKVWLPSGGTLVIDRTEAMTVVRVNTGKFTGSGGNLEQTVTRNNLEAAEEIVRQLRLRDIGGIVVIRFIDMVLESNRDLVLRRLTEALARDRTRHQVSEVTSLGLVQLTRKRLGTGLVEAFSTACTHCGGRGIVLHGDPIDSASSNGGRKSD
B3: HA-tagged RNase J (catalytically active) (enzyme)
chain: MSAELAPPPPLAPGGLRVTALGGISEIGRNMTVFEHLGRLLIVDCGVLFPGHDEPGVDLILPDLRHIEDRLDEIEALVVTHAHEDHIGAIPFLLKLRPDIPVVGSKFTIALVREKCREHRLKPKFVEVAERQSSQHGVFECEYFAVNHSIPGCLAVAIHTGAGTVLHTGDIKLDQLPLDGRPTDLPGMSRLGDAGVDLFLCDSTNSEHPGVSPSESEVGPTLHRLIRGAEGRVIVACFASNVDRVQQIIDAAVALGRRVSFVGRSMVRNMGIARELGYLKVDDSDILDIAAAEMMPPDRVVLITTGTQGEPMAALSRMSRGEHRSITLTSGDLIILSSSLIPGNEEAVYGVIDSLSKIGARVVTNAQARVHVSGHAYAGELLFLYNGVRPRNVMPVHGTWRHLRANAALAASTGVPPENIVLAENGVSVDLVAGRASISGAVTVGKMFVDGLITGDVGDATLGERLILSSGFVSITVVVHRGTGRPAGPAHLISRGFSEDPKALEPVAQKVERELEALAADNVTDPTRIAQAVRRTVGKWVGETYRRQPMIVPTVIEI
B4: untagged RNase J (catalytically active) (enzyme)
chain: B3 chain
B5: catalytically dead RNase E N-terminal IDR deletion (retaining AA 330-1037), N-terminal 6x-His and FLAG tagged (domain or fragment)
chain: SDKSDDSEIQGISGSTRLEAKRQRRRDGRDAGRRRPPILSEAEFLARREAVERTMIVRDKVRTEPPHEGARYTQIAVLEDGVVVEHFVTSAASASLVGNIYLGIVQNVLPSMEAAFVDIGRGRNGVLYAGEVNWEAAGLGGQNRKIEQALKPGDYVVVQVSKDPVGHKGARLTTQVSLAGRYLVYVPGASSTGISRKLPDTERQRLKEILREVVPSDAGVIIRTASEGVKEEDIRSDVERLQKRWSEIEAKAAEVTEKKAGAAVALYEEPDVLVKVIRDLFNEDFSSLIVSGDEAWNTINSYVEAVAPDLMPRLTKYEPAGPDAPDVFAVHRIDEQLAKAMDRKVWLPSGGTLVIDRTEAMTVVRVNTGKFTGSGGNLEQTVTRNNLEAAEEIVRQLRLRDIGGIVVIRFIDMVLESNRDLVLRRLTEALARDRTRHQVSEVTSLGLVQLTRKRLGTGLVEAFSTACTHCGGRGIVLHGDPIDSASSNGGRKSDSSGGGGSGGGRRGKRGKKGAARTEEVHVAKVPDHTPGEHPMFKAMAAANGKHEGDEDHEDHEDHETAEDTTAAEVRDDTRDEHDADERAHVVTAAVGAAGDEDLDDSDEDSDLDSDEESDDESDEDEIELDDDEDELDEDIEVIGDSDDSDDSDDSDEDDDSDDSDDDSDEDEDSDSDEDEEPVREVYEPPVTAPRARVRRRAAARPAGPPSHD

What was measured:
[1] = molecular target: the molecule itself; test: SEC
[2] = molecular target: T1, untagged PNPase (catalytically active); test: co-IP
[3] = molecular target: T2, HA-tagged PNPase (catalytically active); test: co-IP
[4] = molecular target: T2, HA-tagged PNPase (catalytically active); test: co-IP; remark: listed apart in the source

Row | Binder | stoichiometry N [1] | also measured
1 | B1 | 4 | –
2 | B2 | 2 and 4 | –
3 | B3 | – | binding result [2]: binds
4 | B4 | – | binding result [3]: binds
5 | B5 | 2 and 4 | binding result [4]: binds
